Assay results reported in article PMC6555819, “Comprehensive study of nuclear receptor DNA binding provides a revised framework for understanding receptor specificity”.

B1: NRC3_wobSeed66_DR2_G9C_o1 (dsDNA)
DNA 1: GCAATACACGGTCACTAGGCCAGAGTAGGTACGAATGCGATTGACAGCGTAGAATGAAGG
DNA 2: CCTTCATTCTACGCTGTCAATCGCATTCGTACCTACTCTGGCCTAGTGACCGTGTATTGC
B2: NRC3_wobSeed93_DR3_A9C_o1 (dsDNA)
DNA 1: GCAGTCAACGTTCATCTAGGTAACGTAAGATATGCTGCGATTGACAGCGTAGAATGAAGG
DNA 2: CCTTCATTCTACGCTGTCAATCGCAGCATATCTTACGTTACCTAGATGAACGTTGACTGC
B3: NRC3_random_hg19_470_o1 (dsDNA)
DNA 1: GCCAGGAAGGGACAAAGGCCAGGCATGGTGGTTCATGCGATTGACAGCGTAGAATGAAGG
DNA 2: CCTTCATTCTACGCTGTCAATCGCATGAACCACCATGCCTGGCCTTTGTCCCTTCCTGGC
B4: NRC3_wobSeed32_DR1_A25C_o1 (dsDNA)
DNA 1: GCTCTTGTAGATCAAAGGTTAAGACAGCCGAAGCCTGCGATTGACAGCGTAGAATGAAGG
DNA 2: CCTTCATTCTACGCTGTCAATCGCAGGCTTCGGCTGTCTTAACCTTTGATCTACAAGAGC
B5: NRC3_wobSeed32_DR1_G18A_o1 (dsDNA)
DNA 1: GCTCTTGTAGATCAAAGATTAAGAAAGCCGAAGCCTGCGATTGACAGCGTAGAATGAAGG
DNA 2: CCTTCATTCTACGCTGTCAATCGCAGGCTTCGGCTTTCTTAATCTTTGATCTACAAGAGC
B6: NRC3_wobSeed42_DR1_T12A_o1 (dsDNA)
DNA 1: GCTATACAGGGACAAAGGCCAGAGTACGAATGTCGAGCGATTGACAGCGTAGAATGAAGG
DNA 2: CCTTCATTCTACGCTGTCAATCGCTCGACATTCGTACTCTGGCCTTTGTCCCTGTATAGC
B7: NRC3_wobSeed99_DR4_A24C_o1 (dsDNA)
DNA 1: GCTCTCGGAGGACACGAAAGGTCCGAGCTCGACATCGCGATTGACAGCGTAGAATGAAGG
DNA 2: CCTTCATTCTACGCTGTCAATCGCGATGTCGAGCTCGGACCTTTCGTGTCCTCCGAGAGC
B8: NRC3_wobSeed76_DR3_T21G_o1 (dsDNA)
DNA 1: GCCCTACTGGGCCAAAAAGGGCATTGATGCCGATAAGCGATTGACAGCGTAGAATGAAGG
DNA 2: CCTTCATTCTACGCTGTCAATCGCTTATCGGCATCAATGCCCTTTTTGGCCCAGTAGGGC
B9: NRC3_wobSeed89_DR3_C22T_o1 (dsDNA)
DNA 1: GCCTATGTAGGTTAAGGGGGTTATTCAGTTTGAAAGGCGATTGACAGCGTAGAATGAAGG
DNA 2: CCTTCATTCTACGCTGTCAATCGCCTTTCAAACTGAATAACCCCCTTAACCTACATAGGC
B10: NRC3_random_hg19_466_o1 (dsDNA)
DNA 1: GCAGCTTGACTTTGGTGACATTCTTCCTTCGTCCCTGCGATTGACAGCGTAGAATGAAGG
DNA 2: CCTTCATTCTACGCTGTCAATCGCAGGGACGAAGGAAGAATGTCACCAAAGTCAAGCTGC
B11: NRC3_wobSeed114_DR4_T12C_o1 (dsDNA)
DNA 1: GCAATACAGGGCCATCGTAGGCCAGAGTACGCACAGGCGATTGACAGCGTAGAATGAAGG
DNA 2: CCTTCATTCTACGCTGTCAATCGCCTGTGCGTACTCTGGCCTACGATGGCCCTGTATTGC
B12: NRC3_wobSeed124_DR5_C24G_o1 (dsDNA)
DNA 1: GCCCTACTGGGCCATTCAGAGGTGATTGATCATATGGCGATTGACAGCGTAGAATGAAGG
DNA 2: CCTTCATTCTACGCTGTCAATCGCCATATGATCAATCACCTCTGAATGGCCCAGTAGGGC
B13: NRC3_wobSeed40_DR1_A24T_o1 (dsDNA)
DNA 1: GCTAGCCTAGGTCATGGGCCAGTTTACCACGCGAACGCGATTGACAGCGTAGAATGAAGG
DNA 2: CCTTCATTCTACGCTGTCAATCGCGTTCGCGTGGTAAACTGGCCCATGACCTAGGCTAGC
B14: NRC3_random_hg19_40_o1 (dsDNA)
DNA 1: GCAAGAACCAGTGGATTCATAAGGGTGACAGTTCAGGCGATTGACAGCGTAGAATGAAGG
DNA 2: CCTTCATTCTACGCTGTCAATCGCCTGAACTGTCACCCTTATGAATCCACTGGTTCTTGC
B15: NRC3_wobSeed120_DR4_A6C_o1 (dsDNA)
DNA 1: GCCCGCGTAGGTTACGAGGGGGCATTCAGTGCGAATGCGATTGACAGCGTAGAATGAAGG
DNA 2: CCTTCATTCTACGCTGTCAATCGCATTCGCACTGAATGCCCCCTCGTAACCTACGCGGGC
B16: NRC3_wobSeed120_DR4_G21C_o1 (dsDNA)
DNA 1: GCCCGAGTAGGTTACGAGGGCGCATTCAGTGCGAATGCGATTGACAGCGTAGAATGAAGG
DNA 2: CCTTCATTCTACGCTGTCAATCGCATTCGCACTGAATGCGCCCTCGTAACCTACTCGGGC
B17: NRC3_wobSeed120_DR4_G20T_o1 (dsDNA)
DNA 1: GCCCGAGTAGGTTACGAGGTGGCATTCAGTGCGAATGCGATTGACAGCGTAGAATGAAGG
DNA 2: CCTTCATTCTACGCTGTCAATCGCATTCGCACTGAATGCCACCTCGTAACCTACTCGGGC
B18: NRC3_wobSeed10_DR0_C13A_o1 (dsDNA)
DNA 1: GCATCGAAAGGTAGAGGTGAGTATAGAGAAAGGGAAGCGATTGACAGCGTAGAATGAAGG
DNA 2: CCTTCATTCTACGCTGTCAATCGCTTCCCTTTCTCTATACTCACCTCTACCTTTCGATGC
B19: NRC3_wobSeed30_DR1_G16C_o1 (dsDNA)
DNA 1: GCACTAGCAGGCCAACGGTCACTCAAGATTAGTCCGGCGATTGACAGCGTAGAATGAAGG
DNA 2: CCTTCATTCTACGCTGTCAATCGCCGGACTAATCTTGAGTGACCGTTGGCCTGCTAGTGC
B20: NRC3_wobSeed137_DR5_T13A_o1 (dsDNA)
DNA 1: GCATATGTAGGTAACATCCGGGTCATTCAGGCTATGGCGATTGACAGCGTAGAATGAAGG
DNA 2: CCTTCATTCTACGCTGTCAATCGCCATAGCCTGAATGACCCGGATGTTACCTACATATGC
B21: NRC3_random_hg19_454_o1 (dsDNA)
DNA 1: GCTGTCCTTTGTAGCAACATGTATGGAAATGGAGGCGCGATTGACAGCGTAGAATGAAGG
DNA 2: CCTTCATTCTACGCTGTCAATCGCGCCTCCATTTCCATACATGTTGCTACAAAGGACAGC
B22: NRC3_wobSeed47_DR1_T18G_o1 (dsDNA)
DNA 1: GCGGAACGAGGGCAAAGGTGATAGCATCTGTCGACGGCGATTGACAGCGTAGAATGAAGG
DNA 2: CCTTCATTCTACGCTGTCAATCGCCGTCGACAGATGCTATCACCTTTGCCCTCGTTCCGC
B23: NRC3_wobSeed82_DR3_G20T_o1 (dsDNA)
DNA 1: GCATCGAAAGGTCGACGAGTTGAGTATACACCGTTTGCGATTGACAGCGTAGAATGAAGG
DNA 2: CCTTCATTCTACGCTGTCAATCGCAAACGGTGTATACTCAACTCGTCGACCTTTCGATGC
B24: NRC3_wobSeed118_DR4_C7A_o1 (dsDNA)
DNA 1: GCTTACAAAGGTGAGCTGAGGTCGTTGATCCAACTCGCGATTGACAGCGTAGAATGAAGG
DNA 2: CCTTCATTCTACGCTGTCAATCGCGAGTTGGATCAACGACCTCAGCTCACCTTTGTAAGC

Target: RARa:RXRa (Homo sapiens, UniProt P10276;P19793 full;full)
Test: no ligand; PBM; 270 nM : 90 nM RXRa; PBS pH 7.4, 2% milk, 0.02% Triton X-100, 1 mM DTT, BSA, 0.4 mg/ml salmon testes DNA
Conditions: tags: His kept;His cleaved; copies: 1;1; label: surface-attached array probe
Summary of the method: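 Antibodies against each partner of ligand-free nuclear receptor dimers (one per run) detected binding on custom Agilent 4×180K protein-binding microarrays after 1 h incubation. The double-stranded probes had 34-nt variable regions carrying direct-repeat seeds, single-nucleotide variants, half-site ablations and random human genomic background sequences. Binding z-scores, from regression-normalized fluorescence, use the random background probes as reference.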

Sequence of RARa:RXRa (P10276 whole entry, chain 1 of 2): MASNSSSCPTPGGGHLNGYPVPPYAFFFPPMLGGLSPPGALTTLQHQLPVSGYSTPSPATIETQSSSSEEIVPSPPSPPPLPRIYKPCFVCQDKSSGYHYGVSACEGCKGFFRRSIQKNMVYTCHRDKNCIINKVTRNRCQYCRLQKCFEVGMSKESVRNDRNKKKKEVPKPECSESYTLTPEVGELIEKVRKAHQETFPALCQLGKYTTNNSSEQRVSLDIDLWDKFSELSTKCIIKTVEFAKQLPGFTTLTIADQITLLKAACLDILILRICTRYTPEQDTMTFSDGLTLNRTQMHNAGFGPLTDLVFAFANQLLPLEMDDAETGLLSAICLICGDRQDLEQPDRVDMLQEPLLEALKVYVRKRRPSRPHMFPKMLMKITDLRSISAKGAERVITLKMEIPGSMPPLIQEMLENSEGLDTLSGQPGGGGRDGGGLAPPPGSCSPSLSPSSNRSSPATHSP
Sequence of RARa:RXRa (P19793 whole entry, chain 2 of 2): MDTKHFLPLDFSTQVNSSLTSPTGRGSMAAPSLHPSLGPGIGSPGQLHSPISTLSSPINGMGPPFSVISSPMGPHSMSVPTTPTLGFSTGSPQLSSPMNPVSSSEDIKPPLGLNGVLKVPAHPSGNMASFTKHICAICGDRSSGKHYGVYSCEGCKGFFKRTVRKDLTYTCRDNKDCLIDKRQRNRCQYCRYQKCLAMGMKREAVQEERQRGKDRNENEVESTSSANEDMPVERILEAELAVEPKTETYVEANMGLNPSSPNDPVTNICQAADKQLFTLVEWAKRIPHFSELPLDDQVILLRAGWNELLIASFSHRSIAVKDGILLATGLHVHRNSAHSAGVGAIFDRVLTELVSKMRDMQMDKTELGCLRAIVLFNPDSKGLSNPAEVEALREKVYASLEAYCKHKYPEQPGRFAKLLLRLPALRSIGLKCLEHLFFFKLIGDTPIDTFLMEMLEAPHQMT

Binder	binding signal
B1	0.46 PBM z-score against 500 random probes
B2	0.24 PBM z-score against 500 random probes
B3	-0.18 PBM z-score against 500 random probes
B4	3.05 PBM z-score against 500 random probes
B5	0.26 PBM z-score against 500 random probes
B6	0.27 PBM z-score against 500 random probes
B7	0.41 PBM z-score against 500 random probes
B8	-0.04 PBM z-score against 500 random probes
B9	3.33 PBM z-score against 500 random probes
B10	0.17 PBM z-score against 500 random probes
B11	-0.01 PBM z-score against 500 random probes
B12	0.45 PBM z-score against 500 random probes
B13	3.16 PBM z-score against 500 random probes
B14	0.33 PBM z-score against 500 random probes
B15	3.19 PBM z-score against 500 random probes
B16	0.37 PBM z-score against 500 random probes
B17	0.47 PBM z-score against 500 random probes
B18	0.4 PBM z-score against 500 random probes
B19	0.08 PBM z-score against 500 random probes
B20	3.23 PBM z-score against 500 random probes
B21	0.46 PBM z-score against 500 random probes
B22	3.09 PBM z-score against 500 random probes
B23	3 PBM z-score against 500 random probes
B24	3.12 PBM z-score against 500 random probes
